Assay [1] has as its target T1, PP2A subunits Aα, Cα and B55β2 (Homo sapiens, UniProt P30153+P67775).
T1 construct: FLAG; HA (N); Flag; expressed in transfected cells; host or cells: NIH3T3 (mouse embryonic fibroblast cell line)
In words: BiFC-based FRET fluorescence of PP2A holoenzyme assembly (YFPN-Aα+Cα-YFPC+B55β2-CFP) in transfected NIH3T3 cells. In kind it is cell-based. Conditions: NIH3T3 cells co-transfected with YFPN-Aα+Cα-YFPC+B55β2-CFP plus test plasmid; FIG. 4. On the procedure: (§1) In the following embodiments of the present invention, NIH3T3 cells (mouse embryonic fibroblast cell line) was used, which was cultured in Dulbecco's modified Eagle's medium (DMEM) supplemented with 10% bovine serum (BS), 1% Penicillin (10 U/μl)/Streptomycin (10 μg/μl), and 1% L-Glutamine (200 mM). All of the reagents were available from GIBCO.
(§2) NIH3T3 cells were seeded into proper dishes one day before transfection. For example, 7×10^4 cells were seeded in each well of a 24-well plate; 10^6 cells were seeded in a 6 cm dish; and 3×10^6 cells were seeded in a 10 cm dish. […]
(§3) After 24 hrs, cells were washed with PBS buffer three times and fixed by 4% paraformaldehyde/0.025% glutaraldehyde for 15 ruin. […] The cells were observed by fluorescence microscopy (Zeiss, Axio observer Z1). […]
(§4) In the present embodiment, the plasmids of the following experimental groups were transfected into NIH3T3 cells with the aforementioned transfection process, and the cover glasses used in the present embodiment were prepared with the same process described in Embodiment 1. The cells were observed by fluorescence microscopy (Zeiss, Axio observer Z1), and the fluorescence and fluorescent efficiency generated from cells were programmed by Zeiss AxioVision complied with Youvan's method. […]

Assay [2] has as its target T2, PP2A subunits B56γ3, Aα and Cα (Homo sapiens, UniProt P30153+P67775).
T2 construct: HA; Flag; expressed in transfected cells; host or cells: NIH3T3 (mouse embryonic fibroblast cell line)
In words: BiFC-based FRET fluorescence of PP2A holoenzyme assembly (YFPN-B56γ3+YFPC-Aα+CFP-Cα) in transfected NIH3T3 cells. In kind it is cell-based. Conditions: NIH3T3 cells co-transfected with YFPN-B56γ3+YFPC-Aα+CFP-Cα plus test plasmid; FIG. 3. The protocol:
as §1, §2, §3, §4

T2 sequence (P30153 whole entry): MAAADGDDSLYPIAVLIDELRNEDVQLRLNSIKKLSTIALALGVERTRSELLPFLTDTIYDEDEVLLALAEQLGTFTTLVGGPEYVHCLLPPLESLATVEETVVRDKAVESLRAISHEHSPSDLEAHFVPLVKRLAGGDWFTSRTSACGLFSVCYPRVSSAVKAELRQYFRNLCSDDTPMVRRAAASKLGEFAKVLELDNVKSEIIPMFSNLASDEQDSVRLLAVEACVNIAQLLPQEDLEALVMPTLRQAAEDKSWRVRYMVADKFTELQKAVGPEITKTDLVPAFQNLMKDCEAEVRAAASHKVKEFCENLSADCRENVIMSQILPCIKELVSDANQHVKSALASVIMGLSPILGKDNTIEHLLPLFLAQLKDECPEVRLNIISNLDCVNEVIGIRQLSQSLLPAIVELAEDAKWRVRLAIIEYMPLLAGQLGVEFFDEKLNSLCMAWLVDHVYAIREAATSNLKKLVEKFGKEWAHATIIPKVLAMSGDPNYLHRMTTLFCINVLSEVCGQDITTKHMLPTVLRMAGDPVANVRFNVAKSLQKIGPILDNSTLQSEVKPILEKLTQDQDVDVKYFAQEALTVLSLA
T2 sequence (P67775 whole entry): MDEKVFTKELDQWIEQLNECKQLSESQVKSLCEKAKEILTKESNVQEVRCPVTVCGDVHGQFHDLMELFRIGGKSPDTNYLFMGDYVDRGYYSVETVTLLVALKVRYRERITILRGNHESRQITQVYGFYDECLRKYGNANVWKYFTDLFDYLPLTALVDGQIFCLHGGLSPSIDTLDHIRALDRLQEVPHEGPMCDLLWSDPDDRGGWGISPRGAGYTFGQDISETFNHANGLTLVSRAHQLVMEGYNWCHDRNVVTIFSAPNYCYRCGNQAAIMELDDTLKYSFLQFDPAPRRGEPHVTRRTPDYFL
T1 sequence (P30153 whole entry): as the sequence (P30153 whole entry) above
T1 sequence (P67775 whole entry): as the sequence (P67775 whole entry) above

B1: ST: small T (SV40 small T antigen) expressed from pCMV5; may influence the association between the scaffold subunit and the regulatory subunit (protein, UniProt P03081 1-174, looked up)
Small t antigen: MDKVLNREESLQLMDLLGLERSAWGNIPLMRKAYLKKCKEFHPDKGGDEEKMKKMNTLYKKMEDGVKYAHQPDFGGFWDATEVFASSLNPGVDAMYCKQWPECAKKMSANCICLLCLLRMKHENRKLYRKDPLVWVDCYCFDCFRMWFGLDLCEGTLLLWCDIIGQTTYRDLKL
With B1, in assay [1], the “fluorescence and efficiency generated from cells (association between subunits A and B)” value is “only generated weak fluorescence and efficiency”. Also, the “fluorescence generated from cells (association between subunits A and B)” value in assay [2] is “did not generate any fluorescence”.

The record behind these values is patent publication US20130004981A1, “SYSTEM AND METHOD FOR SELECTING MOLECULE INTERACTING WITH PROTEIN PHOSPHATASE” (priority 2011, published 2013).
